Experimental data as given in the RNAGym collection of RNA variant scans (doi:10.1101/gr.219683.116).

B1: mRNA-splicing (parent)
chain: AGUUGCUGCUGGGAGCUCCAGCACAGUGAAAUGGACAGAAGGGCAGAGCAA

Variants of: B1
Assay: exon inclusion enrichment index; higher = more inclusion; WT1 exon 5 minigene, HEK293

| Variant | exon inclusion enrichment index |
| --- | --- |
| AGUUAUAUAUGGGAGCUCCAGCACAGUGAAAUGUGCAGAAGGGCAGAGCAA [G5A C6U U7A G8U C9A G34U A35G] | 0.014 |
| AGUUGAAGAAGGGAGCUCCAGCACAGUGAAAUGGACAGGGGGGCAGAGCAA [C6A U7A C9A U10A A39G A40G] | 0.0665 |
| AGUUUCUUUUGGGAGCUCCAGCACAGUGAAAUGGACAGAAGGGCAGGGCAA [G5U G8U C9U A47G] | 0.0159 |
| AGUUCCAGAAGGGAGCUCCAGCACAGUGAAAUGGACAGAAGGGCAGAGCAA [G5C U7A C9A U10A] | 0.367 |
| AGUUACCACCGGGAGCUCCUGCACAGUGAAAUGGACAGAAGGGCAGAGCAA [G5A U7C G8A U10C A20U] | 2.38 |
| AGUUGACGACGGGAGCUCCAGCACCGUGAAAUGGACAGAAGGGCAGAGCAA [C6A U7C C9A U10C A25C] | 4.45 |
| AGUUCUUACAGGGAGCUCCAGCACAGUGAAAUGGACAGAAGGGCAGAGCAA [G5C C6U G8A U10A] | 0.0597 |
| AUCUCGCGCCGGGAGCUCCAGCACAGUGAAAUGGACAGAAGGGCAGAGCAA [G2U U3C G5C C6G U7C U10C] | 5.85 |
| AGUUCUUCUCGGGAGCUCCAGCACAGUGAAAUGGACAGAAGGGUGGAGCAA [G5C C6U G8C C9U U10C C44U A45G] | 1.03 |
| AGUUCACACAGGGAGCUCCAGCACAGUGAAAUGGACAGAAGGGCAUAGCAA [G5C C6A U7C G8A U10A G46U] | 0.0644 |
| AGUUCGUCCCGGGAGCUCCAGCACAGUGAAAUGGACAGAAGGGCAGAGCAA [G5C C6G G8C U10C] | 3.08 |
| AGUUCGCGCCGGGAGCUCCAGCACAGUGAAAUGGACAGAAGGGGGGAGCAA [G5C C6G U7C U10C C44G A45G] | 1.17 |
| AGUUCGCGCCGGGAGCUCCAGCACAGUGAAAUGGACAGAAGGGGCGAGCAA [G5C C6G U7C U10C C44G A45C] | 5.06 |
| AGUUCUUCUCGGGAGCUCCAGCACAGUGAAAUGGACAGAAUUGCAGAGCAA [G5C C6U G8C C9U U10C G41U G42U] | 1.74 |
| AGUUCUUCUCGGGAGCUCCAGUACAGUGAAAUGGACAGAAGGGCAGAGCAA [G5C C6U G8C C9U U10C C22U] | 1.44 |
| AGUUAGGGAUGGGAGCUCCAGCACAGGAAAAUGGACAGAAGGGCAGAGCAA [G5A C6G U7G C9A U27G G28A] | 0.00077 |
| AGUUCUUCACGGGAGCUCCAGCACAGUGAAAUGGACAGAAGGGCAGAGCAA [G5C C6U G8C C9A U10C] | 2.36 |
| AGUUGCAGAAGGGAGCUCCAGCACAGUGAAAUGGACAGAAGGGCAGAGCAA [U7A C9A U10A] | 0.589 |
| AGUUGCUGCUGGGAGCUCCAGCACAGUGAAAUGGACAGAUCGGCAGAGCAA [A40U G41C] | 0.701 |
| AGUUCUUCUCGGGAGCUCCAGCACAGAUAAAUGGACAGAAGGGCAGAGCAA [G5C C6U G8C C9U U10C U27A G28U] | 0.824 |
| AGUUAUAAUUGGGAGCUCCAGCACAGUGAAAUGGACAGAAGGGCAGAGCAA [G5A C6U U7A G8A C9U] | 0.0446 |
| AGUUCACACAGGGAGCUCCAGCACAGUGUAAUGGACAGAAGGGCAGAGCAA [G5C C6A U7C G8A U10A A29U] | 0.035 |
| AGUUAUAUAUGGGUACUCCAGCACAGUGAAAUGGACAGAAGGGCAGAGCAA [G5A C6U U7A G8U C9A A14U G15A] | 0.0025 |
| AGUUAGGGAUGGGAGCUCCAGCACAGUGAAAUGGACAGAAGGGCAGUGCAA [G5A C6G U7G C9A A47U] | 0.00119 |
| AGUUGACGACGGGAGCUCCAGCACAGUGAAAUGGACAGAAGGAUAGAGCAA [C6A U7C C9A U10C G43A C44U] | 3.22 |
| AGUUCUUCUCGGGAGCUCCAGCACAGUGAAAUGGGUAGAAGGGCAGAGCAA [G5C C6U G8C C9U U10C A35G C36U] | 0.016 |

| Variant | exon inclusion enrichment index |
| --- | --- |
| AGUUAUAUAUGGGAGCUCCAGCACAGUGAUAUGGACAGAAGGGCAGAGCAA [G5A C6U U7A G8U C9A A30U] | 0.0249 |
| AGUUACCACCGGGAGCUCCAGCACAUUGAAAUGGACAGAAGGGCAGAGCAA [G5A U7C G8A U10C G26U] | 2.46 |
| AGUUGACGACGGGAGCUCCAGCACAGUGAAAUGGACGCAAGGGCAGAGCAA [C6A U7C C9A U10C A37G G38C] | 3.21 |
| AGUUGGUCUCGGGAGCUCCAGCACAGUGAAAUGGACAGAAGGGCAGAGCAA [C6G G8C C9U U10C] | 0.97 |
| AGUUGACGACGCAAGCUCCAGCACAGUGAAAUGGACAGAAGGGCAGAGCAA [C6A U7C C9A U10C G12C G13A] | 2.55 |
| AGUUACCGUCGGGAGCUCCAGCACAGUGAAAUGGACAGAAGGGCAGAGCAA [G5A U7C C9U U10C] | 2.63 |
| AGUUGCUGCUGGGAAUUCCAGCACAGUGAAAUGGACAGAAGGGCAGAGCAA [G15A C16U] | 0.014 |
| AGUUAUAUAUGUCAGCUCCAGCACAGUGAAAUGGACAGAAGGGCAGAGCAA [G5A C6U U7A G8U C9A G12U G13C] | 0.00721 |
| AGCGUCUUUUGGGAGCUCCAGCACAGUGAAAUGGACAGAAGGGCAGAGCAA [U3C U4G G5U G8U C9U] | 0.61 |
| AGUUCUUCUCGGGAGCUCCAGCACAGUCUAAUGGACAGAAGGGCAGAGCAA [G5C C6U G8C C9U U10C G28C A29U] | 1.13 |
| AGUUCACACAGGGAGCUCCAGCAUUGUGAAAUGGACAGAAGGGCAGAGCAA [G5C C6A U7C G8A U10A C24U A25U] | 0.151 |
| AGUUGCUGCUGGGAGUGCCAGCACAGUGAAAUGGACAGAAGGGCAGAGCAA [C16U U17G] | 0.211 |
| AGUUGCUGCUGGGAGCUCCAGCACAGUGAAAUGGACAGAAGGUGAGAGCAA [G43U C44G] | 0.0978 |
| AGUUGACGACGGGAGCUCCAGCACAGUGAAAUUAACAGAAGGGCAGAGCAA [C6A U7C C9A U10C G33U G34A] | 0.907 |
| AGUUCACACAGGGAGCUCCAGCACAGUGAAAUGUACAGAAGGGCAGAGCAA [G5C C6A U7C G8A U10A G34U] | 0.012 |
| AGUUAGGGAUGGGAGCUCUGGCACAGUGAAAUGGACAGAAGGGCAGAGCAA [G5A C6G U7G C9A C19U A20G] | 0.00155 |
| AGUUACCACCGGCUGCUCCAGCACAGUGAAAUGGACAGAAGGGCAGAGCAA [G5A U7C G8A U10C G13C A14U] | 1.45 |
| AGUUAAAGAAGGGAGCUCCAGCACAGUGAAAUGGACAGAAGGGCAGAGCAA [G5A C6A U7A C9A U10A] | 0.214 |
| AGUUCUUCUCGGGAGCUCCAGCACAGUGAAAUGGUGAGAAGGGCAGAGCAA [G5C C6U G8C C9U U10C A35U C36G] | 0.181 |
| AGUUUCUUUUGGGAGCUCCAGCACAGUGAAAUGGACAGAAGGGCGGAGCAA [G5U G8U C9U A45G] | 0.366 |
| AGUUCACACAGGGAGCUCCAGCACAGUGAAAUGGACAGCAGGGCAGAGCAA [G5C C6A U7C G8A U10A A39C] | 0.0137 |
| AGUUCGCGCCGGGGCCUCCAGCACAGUGAAAUGGACAGAAGGGCAGAGCAA [G5C C6G U7C U10C A14G G15C] | 1.64 |
| AGUUCUUCUCGAAAGCUCCAGCACAGUGAAAUGGACAGAAGGGCAGAGCAA [G5C C6U G8C C9U U10C G12A G13A] | 0.681 |
| AGUUGCUGCUGGGAGCUCCAGCACAGUGAAAUGGAGGGAAGGGCAGAGCAA [C36G A37G] | 0.0334 |
| AGUUGCUGCUGGGAGCUUGAGCACAGUGAAAUGGACAGAAGGGCAGAGCAA [C18U C19G] | 0.995 |
